The subject of the data set is Escherichia coli TOP10. The experiment in a line: shrunken log2 fold change of peptide-encoding DNA abundance (4.5 h post-induction vs induction); higher = less antimicrobial activity (less host growth inhibition). The conditions noted are these: time post-induction: 4.5 h; library: site-saturation at positions 5, 18, 19, 20.
As for RRIRERPPRLPRPRPRPCFDPRP, the “shrunken log2 fold change” value is -0.144.
Next, RRIRERPPRLPRPRPRPSTRPRP: -0.232; RRIRYRPPRLPRPRPRPIDYPRP: -0.0298.
As for RRIRYRPPRLPRPRPRPWPIPRP, the “shrunken log2 fold change” value turned out to be 0.044.
Next, RRIRTRPPRLPRPRPRPQMQPRP: -0.0728.
To RRIRFRPPRLPRPRPRPIQSPRP belongs -0.127; to RRIRCRPPRLPRPRPRPFMRPRP, 0.0501; to RRIRVRPPRLPRPRPRPCAFPRP, -0.264.
To RRIRHRPPRLPRPRPRPNGSPRP belongs -0.0827.
As for RRIRMRPPRLPRPRPRPINYPRP, the “shrunken log2 fold change” value was -0.22.
RRIRYRPPRLPRPRPRPAKLPRP: the “shrunken log2 fold change” value is -0.194.
As to RRIRVRPPRLPRPRPRPLHPPRP, the “shrunken log2 fold change” value came out at 0.149.
Next, RRIRSRPPRLPRPRPRPALIPRP: 0.0414; RRIRTRPPRLPRPRPRPDKQPRP: 0.0419; RRIRHRPPRLPRPRPRPHYRPRP: -0.0219.
As for RRIRERPPRLPRPRPRPEENPRP, the “shrunken log2 fold change” value is 0.127.
Next, RRIRKRPPRLPRPRPRPFPSPRP: 0.175.
To RRIRARPPRLPRPRPRPWYNPRP belongs -0.305; to RRIRPRPPRLPRPRPRPWVFPRP, 0.0691.
To RRIRARPPRLPRPRPRPYFSPRP belongs -0.624; to RRIRGRPPRLPRPRPRPEGKPRP, 0.574; to RRIRKRPPRLPRPRPRPVFWPRP, 0.666.
For RRIRIRPPRLPRPRPRPNILPRP, the “shrunken log2 fold change” value was -0.557.
Next, RRIRNRPPRLPRPRPRPWHYPRP: -0.25; RRIRIRPPRLPRPRPRPHDVPRP: 0.000407.
To RRIRDRPPRLPRPRPRPTEKPRP belongs 0.0633.
In the case of RRIRNRPPRLPRPRPRPIQGPRP, the “shrunken log2 fold change” value was -0.105.
Next, RRIRYRPPRLPRPRPRPYDYPRP: -0.145.
To RRIRTRPPRLPRPRPRPWMCPRP belongs 0.0404.
Next, RRIRNRPPRLPRPRPRPRYHPRP: -0.438; RRIRGRPPRLPRPRPRPFKGPRP: -0.00192; RRIRKRPPRLPRPRPRPGIMPRP: -0.206.
In the case of RRIRVRPPRLPRPRPRPGELPRP, the “shrunken log2 fold change” value is -0.0483.
With RRIRRRPPRLPRPRPRPCINPRP, the “shrunken log2 fold change” value was determined as 2.42.
On to RRIRVRPPRLPRPRPRPCGIPRP, for which the “shrunken log2 fold change” value stood at 0.0878.
Next, RRIRKRPPRLPRPRPRPRMIPRP: -0.00692; RRIRRRPPRLPRPRPRPSKVPRP: -0.0758.
To RRIRWRPPRLPRPRPRPTDHPRP belongs -0.307; to RRIRCRPPRLPRPRPRPECPPRP, 0.293.
To RRIRTRPPRLPRPRPRPIKFPRP belongs -0.0306; to RRIRIRPPRLPRPRPRPGGVPRP, 0.0574; to RRIRGRPPRLPRPRPRPIIRPRP, 0.07.
Turning to RRIRERPPRLPRPRPRPKISPRP, the “shrunken log2 fold change” value is 0.000121.
RRIRRRPPRLPRPRPRPNYGPRP: the “shrunken log2 fold change” value turned out to be 0.00704.
To RRIRKRPPRLPRPRPRPSMCPRP belongs -0.472; to RRIRKRPPRLPRPRPRPFWPPRP, 0.537.
With RRIRLRPPRLPRPRPRPYRWPRP, the “shrunken log2 fold change” value is -0.0173.
Consider RRIRHRPPRLPRPRPRPEAMPRP, for which the “shrunken log2 fold change” value is -0.00857.
To RRIRCRPPRLPRPRPRPMVLPRP belongs -0.388.
Next, RRIRWRPPRLPRPRPRPTLLPRP: 0.104; RRIRIRPPRLPRPRPRPGKRPRP: 0.0192.
As to RRIRDRPPRLPRPRPRPEGAPRP, the “shrunken log2 fold change” value was determined as 1.78.
On to RRIRHRPPRLPRPRPRPSMMPRP, for which the “shrunken log2 fold change” value is -0.407.
Take RRIRDRPPRLPRPRPRPDPFPRP: the “shrunken log2 fold change” value is -0.00228.
To RRIRWRPPRLPRPRPRPYEQPRP belongs -0.398; to RRIRIRPPRLPRPRPRPMMTPRP, -0.115; to RRIRWRPPRLPRPRPRPVLNPRP, 0.116.
Next, RRIRQRPPRLPRPRPRPSWEPRP: -0.141; RRIRPRPPRLPRPRPRPMLCPRP: 0.122; RRIRRRPPRLPRPRPRPHTMPRP: -0.0621.
To RRIRWRPPRLPRPRPRPHIVPRP belongs -0.102; to RRIRRRPPRLPRPRPRPVWCPRP, 0.273; to RRIRSRPPRLPRPRPRPTKDPRP, -0.105.
Consider RRIRSRPPRLPRPRPRPNYLPRP, for which the “shrunken log2 fold change” value is -0.071.
To RRIRDRPPRLPRPRPRPMLGPRP belongs 0.015.
To RRIRMRPPRLPRPRPRPIDNPRP belongs 0.213; to RRIRNRPPRLPRPRPRPRWHPRP, -0.114.
As to RRIRLRPPRLPRPRPRPKKSPRP, the “shrunken log2 fold change” value was found to be 0.018.
In the case of RRIRNRPPRLPRPRPRPQVAPRP, the “shrunken log2 fold change” value turned out to be 0.14.
Next, RRIRLRPPRLPRPRPRPPGLPRP: 0.149; RRIRLRPPRLPRPRPRPLYCPRP: -0.366; RRIRYRPPRLPRPRPRPWSSPRP: 0.0132.
To RRIRVRPPRLPRPRPRPEPRPRP belongs 0.708; to RRIRWRPPRLPRPRPRPKRMPRP, 0.217; to RRIRERPPRLPRPRPRPMSTPRP, -0.516.
To RRIRQRPPRLPRPRPRPDSDPRP belongs -0.159; to RRIRVRPPRLPRPRPRPRLMPRP, -0.0256.
In the case of RRIRARPPRLPRPRPRPLMGPRP, the “shrunken log2 fold change” value is 0.489.
To RRIRARPPRLPRPRPRPAIIPRP belongs 0.101; to RRIRERPPRLPRPRPRPYIQPRP, -0.184.
In the case of RRIRLRPPRLPRPRPRPERMPRP, the “shrunken log2 fold change” value was -0.0208.
To RRIRCRPPRLPRPRPRPLVCPRP belongs -0.0544; to RRIRHRPPRLPRPRPRPIELPRP, -0.0301.
For RRIRFRPPRLPRPRPRPCAPPRP, the “shrunken log2 fold change” value is -0.121.
To RRIRGRPPRLPRPRPRPEHPPRP belongs 0.281.
Next, RRIRYRPPRLPRPRPRPWSFPRP: -0.522; RRIRFRPPRLPRPRPRPGEGPRP: 0.375; RRIRWRPPRLPRPRPRPTYDPRP: 1.48.
Next, RRIRMRPPRLPRPRPRPYYHPRP: -0.459.
Take RRIRNRPPRLPRPRPRPIFMPRP: the “shrunken log2 fold change” value was -0.116.
To RRIRGRPPRLPRPRPRPLCMPRP belongs 0.605.

For the origin of these results see the supplement of paper PMC9112550, “Optimization of the antimicrobial peptide Bac7 by deep mutational scanning” (BMC Biology, 2022).
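Note: peptides expressed intracellularly from a pBAD plasmid library in pooled LB shake-flask culture, induced with 0.3% L-arabinose, DNA abundance read by NGS, three biological replicates, DESeq2 with apeglm shrinkage.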
